The test system of the data set is ghrelin receptor (WT or mutants). The data set can be described thus: Cell-surface expression assay (FACS). Format: cell-based, human. As for the experimental part:
Cell-surface expression for each mutant was monitored by a fluorescence-activated cell sorting (FACS) assay. In brief, the expressed cells were incubated with mouse anti-HA-FITC antibody (Sigma) at a dilution of 1:200 for 20 min at 4 °C, and then a 9-fold excess of PBS was added to cells. […] The FACS data were analyzed by BD Accuri C6 software 1.0.264.21. The gating strategy and calculation method of expression are shown in Supplementary Fig. 11.
Supplementary Figure 11 | Gating strategy of cell surface expression assay. Circle a gate P1 in the scatter map (black circle). The cells shown in the histogram map are all the cells in the gate P1 in the scatter map. Fluorescence signal intensity (FITC) is presented by […]. With the Blank sample as the reference value of background fluorescence signal (a), the fluorescence signal histogram map is divided into two regions. The left region represents the negative cell community (FITC-), while the right region represents the positive cell community (FITC+). The expression level of cell surface wild-type (WT) ghrelin receptor (b) can be calculated as follows:
(M(FITC+)-M(FITC-))×(FITC+% Parent). M, mean fluorescence intensity. The expression level of the ghrelin receptor mutant is calculated similarly to WT receptor and then is normalized with the WT to calculate the relative expression value. […]

B1: WT (protein, UniProt Q92847 1-366, looked up)
Growth hormone secretagogue …: MWNATPSEEPGFNLTLADLDWDASPGNDSLGDELLQLFPAPLLAGVTATCVALFVVGIAGNLLTMLVVSRFRELRTTTNLYLSSMAFSDLLIFLCMPLDLVRLWQYRPWNFGDLLCKLFQFVSESCTYATVLTITALSVERYFAICFPLRAKVVVTKGRVKLVIFVIWAVAFCSAGPIFVLVGVEHENGTDPWDTNECRPTEFAVRSGLLTVMVWVSSIFFFLPVFCLTVLYSLIGRKLWRRRRGDAVVGASLRDQNHKQTVKMLAVVVFAFILCWLPFHVGRYLFSKSFEPGSLEIAQISQYCNLVSFVLFYLSAAINPILYNIMSKKYRVAVFRLLGFEPFSQRKLSTLKDESSRAWTESSINT
Consider B1, for which the Cell-surface expression was 98.69% (replicate 1); 96.95% (replicate 2); 107.34% (replicate 3); 98.90% (replicate 4); 98.13% (replicate 5).

B2: L37N-termA (protein)
chain: MWNATPSEEPGFNLTLADLDWDASPGNDSLGDELLQAFPAPLLAGVTATCVALFVVGIAGNLLTMLVVSRFRELRTTTNLYLSSMAFSDLLIFLCMPLDLVRLWQYRPWNFGDLLCKLFQFVSESCTYATVLTITALSVERYFAICFPLRAKVVVTKGRVKLVIFVIWAVAFCSAGPIFVLVGVEHENGTDPWDTNECRPTEFAVRSGLLTVMVWVSSIFFFLPVFCLTVLYSLIGRKLWRRRRGDAVVGASLRDQNHKQTVKMLAVVVFAFILCWLPFHVGRYLFSKSFEPGSLEIAQISQYCNLVSFVLFYLSAAINPILYNIMSKKYRVAVFRLLGFEPFSQRKLSTLKDESSRAWTESSINT
modifications: SNAP tag labelled with SNAP-Lumi4-Tb; left off: SNAP, N-terminal, kept
With B2, the Cell-surface expression turned out to be 100.75% (replicate 1); 98.96% (replicate 2); 98.94% (replicate 3); 96.06% (replicate 4); 97.45% (replicate 5).

B3: L1032.64A (protein)
chain: MWNATPSEEPGFNLTLADLDWDASPGNDSLGDELLQLFPAPLLAGVTATCVALFVVGIAGNLLTMLVVSRFRELRTTTNLYLSSMAFSDLLIFLCMPLDLVRAWQYRPWNFGDLLCKLFQFVSESCTYATVLTITALSVERYFAICFPLRAKVVVTKGRVKLVIFVIWAVAFCSAGPIFVLVGVEHENGTDPWDTNECRPTEFAVRSGLLTVMVWVSSIFFFLPVFCLTVLYSLIGRKLWRRRRGDAVVGASLRDQNHKQTVKMLAVVVFAFILCWLPFHVGRYLFSKSFEPGSLEIAQISQYCNLVSFVLFYLSAAINPILYNIMSKKYRVAVFRLLGFEPFSQRKLSTLKDESSRAWTESSINT
modifications: SNAP tag labelled with SNAP-Lumi4-Tb; left off: SNAP, N-terminal, kept
With B3, the Cell-surface expression by setting is: (replicate 1) 102.32%; (replicate 2) 103.70%; (replicate 3) 96.41%; (replicate 4) 91.52%; (replicate 5) 101.60%.

B4: I1784.60A (protein)
chain: MWNATPSEEPGFNLTLADLDWDASPGNDSLGDELLQLFPAPLLAGVTATCVALFVVGIAGNLLTMLVVSRFRELRTTTNLYLSSMAFSDLLIFLCMPLDLVRLWQYRPWNFGDLLCKLFQFVSESCTYATVLTITALSVERYFAICFPLRAKVVVTKGRVKLVIFVIWAVAFCSAGPAFVLVGVEHENGTDPWDTNECRPTEFAVRSGLLTVMVWVSSIFFFLPVFCLTVLYSLIGRKLWRRRRGDAVVGASLRDQNHKQTVKMLAVVVFAFILCWLPFHVGRYLFSKSFEPGSLEIAQISQYCNLVSFVLFYLSAAINPILYNIMSKKYRVAVFRLLGFEPFSQRKLSTLKDESSRAWTESSINT
modifications: SNAP tag labelled with SNAP-Lumi4-Tb; left off: SNAP, N-terminal, kept
Regarding B4, the Cell-surface expression came out at 94.94% (replicate 1); 100.59% (replicate 2); 91.58% (replicate 3); 96.01% (replicate 4); 89.87% (replicate 5).

B5: R1022.63A (protein)
chain: MWNATPSEEPGFNLTLADLDWDASPGNDSLGDELLQLFPAPLLAGVTATCVALFVVGIAGNLLTMLVVSRFRELRTTTNLYLSSMAFSDLLIFLCMPLDLVALWQYRPWNFGDLLCKLFQFVSESCTYATVLTITALSVERYFAICFPLRAKVVVTKGRVKLVIFVIWAVAFCSAGPIFVLVGVEHENGTDPWDTNECRPTEFAVRSGLLTVMVWVSSIFFFLPVFCLTVLYSLIGRKLWRRRRGDAVVGASLRDQNHKQTVKMLAVVVFAFILCWLPFHVGRYLFSKSFEPGSLEIAQISQYCNLVSFVLFYLSAAINPILYNIMSKKYRVAVFRLLGFEPFSQRKLSTLKDESSRAWTESSINT
modifications: SNAP tag labelled with SNAP-Lumi4-Tb; left off: SNAP, N-terminal, kept
For B5, the Cell-surface expression runs as follows: (replicate 1) 101.47%; (replicate 2) 87.96%; (replicate 3) 94.26%; (replicate 4) 99.21%; (replicate 5) 100.61%.

B6: F38N-termA (protein)
chain: MWNATPSEEPGFNLTLADLDWDASPGNDSLGDELLQLAPAPLLAGVTATCVALFVVGIAGNLLTMLVVSRFRELRTTTNLYLSSMAFSDLLIFLCMPLDLVRLWQYRPWNFGDLLCKLFQFVSESCTYATVLTITALSVERYFAICFPLRAKVVVTKGRVKLVIFVIWAVAFCSAGPIFVLVGVEHENGTDPWDTNECRPTEFAVRSGLLTVMVWVSSIFFFLPVFCLTVLYSLIGRKLWRRRRGDAVVGASLRDQNHKQTVKMLAVVVFAFILCWLPFHVGRYLFSKSFEPGSLEIAQISQYCNLVSFVLFYLSAAINPILYNIMSKKYRVAVFRLLGFEPFSQRKLSTLKDESSRAWTESSINT
modifications: SNAP tag labelled with SNAP-Lumi4-Tb; left off: SNAP, N-terminal, kept
In the case of B6, the Cell-surface expression runs as follows: (replicate 1) 92.98%; (replicate 2) 95.22%; (replicate 3) 93.15%; (replicate 4) 94.06%; (replicate 5) 92.77%.

B7: E1243.33A (protein)
chain: MWNATPSEEPGFNLTLADLDWDASPGNDSLGDELLQLFPAPLLAGVTATCVALFVVGIAGNLLTMLVVSRFRELRTTTNLYLSSMAFSDLLIFLCMPLDLVRLWQYRPWNFGDLLCKLFQFVSASCTYATVLTITALSVERYFAICFPLRAKVVVTKGRVKLVIFVIWAVAFCSAGPIFVLVGVEHENGTDPWDTNECRPTEFAVRSGLLTVMVWVSSIFFFLPVFCLTVLYSLIGRKLWRRRRGDAVVGASLRDQNHKQTVKMLAVVVFAFILCWLPFHVGRYLFSKSFEPGSLEIAQISQYCNLVSFVLFYLSAAINPILYNIMSKKYRVAVFRLLGFEPFSQRKLSTLKDESSRAWTESSINT
modifications: SNAP tag labelled with SNAP-Lumi4-Tb; left off: SNAP, N-terminal, kept
B7 registered a Cell-surface expression (replicate 1) of 93.73%; a Cell-surface expression (replicate 2) of 94.80%; a Cell-surface expression (replicate 3) of 89.39%; a Cell-surface expression (replicate 4) of 97.54%; a Cell-surface expression (replicate 5) of 93.21%.

B8: L1814.63A (protein)
chain: MWNATPSEEPGFNLTLADLDWDASPGNDSLGDELLQLFPAPLLAGVTATCVALFVVGIAGNLLTMLVVSRFRELRTTTNLYLSSMAFSDLLIFLCMPLDLVRLWQYRPWNFGDLLCKLFQFVSESCTYATVLTITALSVERYFAICFPLRAKVVVTKGRVKLVIFVIWAVAFCSAGPIFVAVGVEHENGTDPWDTNECRPTEFAVRSGLLTVMVWVSSIFFFLPVFCLTVLYSLIGRKLWRRRRGDAVVGASLRDQNHKQTVKMLAVVVFAFILCWLPFHVGRYLFSKSFEPGSLEIAQISQYCNLVSFVLFYLSAAINPILYNIMSKKYRVAVFRLLGFEPFSQRKLSTLKDESSRAWTESSINT
modifications: SNAP tag labelled with SNAP-Lumi4-Tb; left off: SNAP, N-terminal, kept
Turning to B8, the Cell-surface expression was 94.17% (replicate 1); 98.71% (replicate 2); 96.25% (replicate 3); 95.38% (replicate 4); 113.13% (replicate 5).

B9: D992.60A (protein)
chain: MWNATPSEEPGFNLTLADLDWDASPGNDSLGDELLQLFPAPLLAGVTATCVALFVVGIAGNLLTMLVVSRFRELRTTTNLYLSSMAFSDLLIFLCMPLALVRLWQYRPWNFGDLLCKLFQFVSESCTYATVLTITALSVERYFAICFPLRAKVVVTKGRVKLVIFVIWAVAFCSAGPIFVLVGVEHENGTDPWDTNECRPTEFAVRSGLLTVMVWVSSIFFFLPVFCLTVLYSLIGRKLWRRRRGDAVVGASLRDQNHKQTVKMLAVVVFAFILCWLPFHVGRYLFSKSFEPGSLEIAQISQYCNLVSFVLFYLSAAINPILYNIMSKKYRVAVFRLLGFEPFSQRKLSTLKDESSRAWTESSINT
modifications: SNAP tag labelled with SNAP-Lumi4-Tb; left off: SNAP, N-terminal, kept
As for B9, the Cell-surface expression is 101.25% (replicate 1); 96.41% (replicate 2); 90.24% (replicate 3); 92.75% (replicate 4); 94.78% (replicate 5).

Values taken from article PMC8379176 (Nature Communications, 2021).
